# Molecular target: Dispatched-yellow fluorescent protein (YFP) (D. melanogaster) (UniProt Q9VNJ5)
# Test: MST
# UniProt Q9VNJ5, sequence (Q9VNJ5 whole entry): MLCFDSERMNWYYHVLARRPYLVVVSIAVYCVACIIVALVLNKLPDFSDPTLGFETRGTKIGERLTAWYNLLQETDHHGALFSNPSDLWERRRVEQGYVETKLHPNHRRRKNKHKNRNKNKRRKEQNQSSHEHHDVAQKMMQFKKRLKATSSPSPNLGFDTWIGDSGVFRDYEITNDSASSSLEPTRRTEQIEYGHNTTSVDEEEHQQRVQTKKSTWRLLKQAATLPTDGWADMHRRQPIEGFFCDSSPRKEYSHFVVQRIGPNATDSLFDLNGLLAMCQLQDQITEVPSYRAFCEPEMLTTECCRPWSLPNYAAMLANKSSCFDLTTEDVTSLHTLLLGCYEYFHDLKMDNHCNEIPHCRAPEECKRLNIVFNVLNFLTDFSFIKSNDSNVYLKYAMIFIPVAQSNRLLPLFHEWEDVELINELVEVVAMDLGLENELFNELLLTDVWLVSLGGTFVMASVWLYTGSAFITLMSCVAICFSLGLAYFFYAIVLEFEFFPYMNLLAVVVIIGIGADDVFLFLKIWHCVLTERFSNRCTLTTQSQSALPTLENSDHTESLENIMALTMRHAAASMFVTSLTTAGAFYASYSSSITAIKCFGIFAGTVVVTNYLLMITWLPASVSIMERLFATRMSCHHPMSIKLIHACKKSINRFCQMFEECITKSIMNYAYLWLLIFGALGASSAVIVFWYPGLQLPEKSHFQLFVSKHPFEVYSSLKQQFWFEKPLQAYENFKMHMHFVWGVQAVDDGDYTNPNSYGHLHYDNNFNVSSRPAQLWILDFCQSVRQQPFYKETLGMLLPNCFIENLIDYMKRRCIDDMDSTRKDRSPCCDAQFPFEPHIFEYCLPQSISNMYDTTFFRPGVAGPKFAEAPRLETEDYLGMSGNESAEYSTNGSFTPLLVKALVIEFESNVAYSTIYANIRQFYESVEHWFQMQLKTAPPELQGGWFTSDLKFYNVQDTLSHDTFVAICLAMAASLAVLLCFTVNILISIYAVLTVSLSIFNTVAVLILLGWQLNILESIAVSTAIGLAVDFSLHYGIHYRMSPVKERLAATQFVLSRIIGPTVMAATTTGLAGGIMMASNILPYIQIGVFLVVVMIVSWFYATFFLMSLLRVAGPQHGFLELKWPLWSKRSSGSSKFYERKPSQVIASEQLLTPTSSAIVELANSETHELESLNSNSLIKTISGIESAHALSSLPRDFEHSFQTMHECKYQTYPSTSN
substance,measurement,value
modified D. melanogaster hedgehog N-terminal fragment HhN_(C85II) (from UniProt Q02936 85-257) (ligand),Kd,6.2 µM

# Reference: paper PMC7159904
